Test [1] concerns the target hypothetical protein LOC297607 (rat) (UniProt D4A770). Briefly: IP of RBL-2H3 lysate on nickel beads, MS/MS ProtScore; 1st of 3 experiments.
Test [2] shares this target. Briefly: IP of RBL-2H3 lysate on nickel beads, MS/MS ProtScore; 2nd of 3 experiments.
Test [3] has the same target. Briefly: IP of RBL-2H3 lysate on nickel beads, MS/MS ProtScore; 3rd of 3 experiments.

Chain of hypothetical protein LOC297607 (rat) (D4A770 whole entry): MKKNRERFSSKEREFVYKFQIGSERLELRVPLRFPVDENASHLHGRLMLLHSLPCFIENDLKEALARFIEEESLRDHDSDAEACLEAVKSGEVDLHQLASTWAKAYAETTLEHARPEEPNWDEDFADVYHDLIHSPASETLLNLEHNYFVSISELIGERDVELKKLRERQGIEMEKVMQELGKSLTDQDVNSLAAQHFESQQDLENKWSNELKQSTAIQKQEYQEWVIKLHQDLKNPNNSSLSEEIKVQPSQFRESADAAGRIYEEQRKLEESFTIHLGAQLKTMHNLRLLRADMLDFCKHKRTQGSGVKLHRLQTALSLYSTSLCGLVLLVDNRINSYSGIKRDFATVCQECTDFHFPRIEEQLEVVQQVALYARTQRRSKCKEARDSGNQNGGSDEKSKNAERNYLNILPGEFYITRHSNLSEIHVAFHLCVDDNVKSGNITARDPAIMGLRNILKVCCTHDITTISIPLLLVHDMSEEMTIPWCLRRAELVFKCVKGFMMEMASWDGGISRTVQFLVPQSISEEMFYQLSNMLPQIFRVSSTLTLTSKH

Take irrelevant VH: the Protscore IP was found to be 0 in test [1], 0 in test [2] and 2 in test [3].

The record behind these values is US20150346192A1.
